Assay results as given in patent US20220162314A1.

Target: Recombinant human CD8ab protein (extracellular domains of CD8a and CD8b with leucine zippers and tags) (human) (UniProt P01732)
Test: ELISA: antigen coated on the plate, antibody titrated, anti-IgG (Fc)-HRP and TMB, A450

Recombinant human CD8ab protein (extracellular domains of CD8a and CD8b with leucine zippers and tags) (human), sequence (P01732 22-182, chain 1 of 2): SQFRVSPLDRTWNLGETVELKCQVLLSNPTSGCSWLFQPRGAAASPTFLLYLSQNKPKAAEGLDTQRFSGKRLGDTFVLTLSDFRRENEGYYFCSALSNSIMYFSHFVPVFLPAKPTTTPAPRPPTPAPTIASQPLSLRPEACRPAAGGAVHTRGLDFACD
Recombinant human CD8ab protein (extracellular domains of CD8a and CD8b with leucine zippers and tags) (human), sequence (P10966 22-170, chain 2 of 2, further chain): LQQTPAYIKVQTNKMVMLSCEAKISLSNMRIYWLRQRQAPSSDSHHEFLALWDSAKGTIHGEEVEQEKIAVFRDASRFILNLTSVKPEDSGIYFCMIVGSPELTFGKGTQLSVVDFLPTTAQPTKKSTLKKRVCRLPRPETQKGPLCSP

- EC50 (read off the curve): 0.1 nM
Substance: xhCD8a2 (clone SK1, Biolegend) (antibody)
